Target: trypsin from porcine pancreas (porcine) (UniProt P00761)
UniProt P00761, sequence (P00761 9-231): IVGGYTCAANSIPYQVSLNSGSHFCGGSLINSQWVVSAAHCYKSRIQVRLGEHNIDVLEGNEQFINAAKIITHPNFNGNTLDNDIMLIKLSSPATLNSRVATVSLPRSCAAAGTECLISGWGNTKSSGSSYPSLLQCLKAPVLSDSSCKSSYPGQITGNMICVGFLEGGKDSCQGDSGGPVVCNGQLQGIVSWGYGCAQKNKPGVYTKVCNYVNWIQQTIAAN

IC50 of inhibition of trypsin activity (cleavage of the Arg6-Cys peptide, read by fluorescence of dC12-AgNCs-peptide/GO at 635 nm; 37 °C, 20 min, 2.0 mM phosphate buffer pH 7.4): 3.6 ng∙mL^−1
B1: Bowman Birk inhibitor (BBI) from soybean (natural protein)
chain: DDESSKPCCDQCACTKSNPPQCRCSDMRLNSCHSACKSCICALSYPAQCFCVDITDFCYEPCKPSEDDKEN
